These results are taken from patent publication US8933202B2, “AXL antibodies” (U3 Pharma GmbH, priority 2007, dated 2015).

For assay [1], the system named is PC-3-LN prostate carcinoma. Nature of the assay: Orthotopic prostate carcinoma xenograft model in nude mice. In kind it is in vivo, NMRI nu/nu mice. The protocol:
The anti-tumor efficacy of therapeutic antibodies is often evaluated in human xenograft tumor studies. In these model systems, human tumors grow as xenografts in immunocompromised mice and therapeutic efficacy is measured by the degree of tumor growth inhibition. The aim of this study was to evaluate whether the antagonistic rat anti-AXL antibody 11B7 of the invention interferes with tumor growth of human prostate cancer cells in nude mice. In brief, on day 0, 7-8 weeks old male NMRI^−nu/nu mice (approximate weight: 30 g after acclimatization) were anesthesized with 1.5-2.0 volume percent isoflurane at an oxygen flow rate of 2 l/min, and 1×10^6 PC-3-LN cells in 25 μl PBS were orthotopically implanted into the prostate. PC-3-LN cells are derived from the PC-3 prostate carcinoma cell line which was infected with a retrovirus coding for a luciferase-neomycin fusion protein. The onset of tumor growth and tumor growth progression was therefore measurable via in vivo bioluminescence imaging. For this purpose, luciferin was injected intraperitoneally (i.p.) into the mice and light emission was measured 10 min post injection using a NightOWL LB 981 bioluminescence imaging system (Berthold Technologies, Germany). Prior to first treatment, mice were randomized and statistical tests performed to assure uniformity in starting tumor volumes (mean, median and standard deviation) across the treatment groups of 10 animals each. On day 8, all treatments started and were continued until day 34, followed by necropsy on day 35. […] In the same experiment as described under “Rat anti-AXL antibodies of the invention reduce human prostate carcinoma growth in nude mice”, relocalization of PC-3-LN tumor cells into other organs (metastasis) was analyzed post necropsy to evaluate anti-metastatic effects of the antagonistic rat anti-AXL antibody 11B7 of the invention. […] Subsequently, light emission was measured using a NightOWL LB 981 bioluminescence imaging system (Berthold Technologies, Germany).

Assay [2] has as its system Akt-Kinase. Nature of the assay: Akt-Kinase (Ser473) phosphorylation ELISA. The format is cell-based. Particulars: 400 ng/ml Gas6. The protocol:
Furthermore, ELISA experiments were performed in order to investigate whether the rat anti-AXL antibodies of the invention are able to block ligand Gas6-mediated activation of Akt-Kinase. Gas6-mediated Akt-Kinase activation was detected by increased protein (Ser473) phosphorylation. In brief, on day 1. 2×10^4 cells per well were seeded in flat-bottom 96 well plates. The next day, normal growth medium was replaced by serum-reduced (DMEM, 0.5% FCS for NIH3T3-AXL cl.7 fibroblasts) or serum-free (for cancer cell lines) medium to starve cells for 36 h. […] Medium was flicked out and cells were fixed with 4% formaldehyde in PBS (pH 7.5) for 30 min at room temperature. Formaldehyde solution was removed and cells were washed twice with wash buffer (PBS, 0.1% Tween 20). […] Tetramethylbenzidine (TMB, Calbiochem) was added and monitored at 620 nm.
In order to investigate whether the rat anti-AXL antibodies of the invention and the corresponding chimeric anti-AXL antibodies of the invention were able to block ligand Gas6-mediated activation of the Akt-Kinase in NIH3T3-AXL cl.7 fibroblasts to similar extent, ELISA experiments were performed. Antibody-mediated Akt-Kinase inhibition was detected by decreased protein (Ser473) phosphorylation. […] Tetramethylbenzidine (TMB, Calbiochem) was added and monitored at 620 nm.
A general note: In an ELISA, binding on a coated surface is turned into a signal by an enzyme label.

B1: 11B7: antagonistic rat anti-AXL monoclonal antibody, rat IgG1 (antibody, V domains shown)
VL: DIQMTQAPSSLPASLGDRVTITCRASQDIGNYLRWFQQKPGKSPRLMISGATNLAAGVPSRFSGSRSGSDYSLTISSLESEDMADYYCLQSKESPWTFGGGTKLELK
VH: EVQLQESGPGLVKPSQSLSLTCSVTGYSITSNYWGWIRKFPGDKMEWMGYITYSGSTSYNPSLKSRISITRDTSKNQFFLQLNSVTSEDTATYYCAITTFYYWGQGVMVTVSS
For B1, the “overall growth of PC-3-LN prostate tumors (in vivo bioluminescence)” value in assay [1] (25 mg/kg i.p. 3x a week, day 8 to 34, compared to isotypic control antibody 1D5) is on record as “reduced the overall growth of PC-3-LN prostate tumors”. Moreover, the “occurrence of spleen metastases” value in assay [1] (25 mg/kg i.p. 3x a week, post necropsy, compared to 1D5) is “reduced the occurrence of spleen metastases”. For the same molecule, in assay [1] (11B7 25 mg/kg i.p. versus Sutent 40 mg/kg p.o. daily, spleen), the “anti-metastatic effect compared with Sutent” value was “stronger than that of Sutent”. Further, the “ligand-mediated Akt-Kinase activation, rat versus chimeric antibody” value in assay [2] (50 ng/ml to 1 μg/ml (11B7, ch11B7) or to 10 μg/ml (11D5, ch11D5), NIH3T3-AXL cl.7) was “able to inhibit ligand-mediated Akt-Kinase activation to similar extent”. Besides, the “ligand-mediated Akt-Kinase activation (phosphorylation)” value in assay [2] (10 μg/ml antibody, NIH3T3-AXL cl.7 fibroblasts and CaLa-1 lung cancer cells) is “able to block or reduce ligand-mediated Akt-Kinase activation”.
